Data taken from PMC4661071.

Columns and labels:
[1] = target: recombinant soluble EPCR (extracellular region, residues 18–210), biotinylated (UniProt Q9UNN8); test: BLI
[2] = target: wild-type EPCR on stably transfected CHO745 cells (UniProt Q9UNN8); test: flow cytometry on cells
[3] = target: EPCR R81A on stably transfected CHO745 cells (UniProt Q9UNN8); test: flow cytometry on cells

Q: For “Var06CIDRα1.1 recombinant protein (domain or fragment)”, which Kd [1] is on record?
A: 98 nM

Q: And the MFI of Fl-APC on the cells with 250 µg/ml of the CIDR domain (1329 without) [2]?
A: 429

Q: And the double positive cells (CIDR and Fl-APC) at 250 µg/ml of the CIDR domain [2]?
A: 62%

Q: What does the source list for “Var07CIDRα1.4 recombinant protein (domain or fragment)”?
A: decrease of binding relative to wild type EPCR [3]: 80%; MFI of Fl-APC on the cells with 100 µg/ml of the CIDR domain (1329 without) [2]: 385; double positive cells (CIDR and Fl-APC) at 100 µg/ml of the CIDR domain [2]: 28%

Q: Which decrease of binding relative to wild type EPCR [3] does the source give for “Var19CIDRα1.1 recombinant protein (from UniProt A3R6S3 1-3373) (domain or fragment)” here?
A: 90%

Q: What about the MFI of Fl-APC on the cells with 250 µg/ml of the CIDR domain (1329 without) [2] of the same substance?
A: 746

Q: And the double positive cells (CIDR and Fl-APC) at 250 µg/ml of the CIDR domain [2]?
A: 69%

Q: “activated protein C (APC), unlabeled (from UniProt P04070 43-197; P04070 43-197) (enzyme)” was tested. Which mean fluorescence intensity (MFI) of APC labeling, without CIDR domains [2] did it give?
A: 994

Q: What about the percent of CHO745-EPCR cells labeled for APC, without CIDR domains [2] of the same substance?
A: 76%

Q: “fluorescein-labelled activated protein C (Fl-APC) (from UniProt P04070 43-197; P04070 43-197) (enzyme)” was tested. Which MFI of Fl-APC, without CIDR domains [2] did it give?
A: 1330

Q: What about the percent of cells that bound 50 µg/ml Fl-APC, without CIDR domains [2] of the same substance?
A: 78%
